This passage reports protein stability index results from the supplement of paper PMC10724198.

± gives the standard deviation of the averaged measurements.

For this series, the system named is Saccharomyces cerevisiae. In words: protein stability index of tFT-peptide fusion (C-terminal peptide) (PSI (0-1 scale)); higher = more stable (slower turnover). The following applies: temperature: 30 C. The procedure:
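MPS profiling in S. cerevisiae of the yeast C-terminome library: the last 12 aa of each annotated ORF are fused to the C-terminus of a sfGFP-mCherry timer, after a GGGS linker. Cells are FACS-sorted into 8 mCherry/sfGFP bins and deep-sequenced. PSI runs from 0 (unstable) to 1 (stable); wild type and das1Δ backgrounds, two technical replicates each.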

The mark [1] stands for this setting: genetic background: das1 deletion.

As for MLQYLVFVYIEK [YCR085W C-terminal 12 aa], the protein stability index by setting is: under setting [1], 0.182 ± 0.0095; (genetic background: wild type) 0.21 ± 0.016.

Regarding MTDFSSSIIKGK [YCR090C C-terminal 12 aa], the protein stability index reads like this: under setting [1], 0.713 ± 0.031; (genetic background: wild type) 0.677 ± 0.048.

Consider MVKIRTKNDAKN [TAF2 C-terminal 12 aa], for which the protein stability index was determined as 0.7067 ± 0.0054 under setting [1] and 0.6135 ± 0.00067 (genetic background: wild type).

Regarding MVTSIRSTPNYI [MED6 C-terminal 12 aa], the protein stability index came out at 0.694 ± 0.021 under setting [1] and 0.722 ± 0.051 (genetic background: wild type).

As to NAILNGGSVSGL [YAR066W C-terminal 12 aa], the protein stability index turned out to be 0.677 ± 0.0079 under setting [1] and 0.668 ± 0.02 (genetic background: wild type).

NASYTKKYVPHP [YPR059C C-terminal 12 aa]: the protein stability index is, setting by setting: under setting [1], 0.682 ± 0.0097; (genetic background: wild type) 0.703 ± 0.063.

For the sequence NATYNDSESSLN [SPO13 C-terminal 12 aa], the protein stability index is, setting by setting: under setting [1], 0.727 ± 0.016; (genetic background: wild type) 0.721 ± 0.0083.

Turning to NDINNSRPITRK [ARO80 C-terminal 12 aa], the protein stability index was determined as 0.682 ± 0.045 under setting [1] and 0.666 ± 0.03 (genetic background: wild type).

NEDWPNESKPLV [GOR1 C-terminal 12 aa]: the protein stability index is, setting by setting: under setting [1], 0.711 ± 0.0072; (genetic background: wild type) 0.663 ± 0.011.

On to NEELEKLRPPIT [SIP3 C-terminal 12 aa], for which the protein stability index by setting is: under setting [1], 0.7001 ± 0.0018; (genetic background: wild type) 0.716 ± 0.052.

As to NEIATKLEETKL [TYS1 C-terminal 12 aa], the protein stability index came out at 0.694 ± 0.037 under setting [1] and 0.687 ± 0.0072 (genetic background: wild type).

As to NESLSTILLYII [YKR033C C-terminal 12 aa], the protein stability index reads like this: under setting [1], 0.644 ± 0.008; (genetic background: wild type) 0.561 ± 0.0068.

Consider “NFFESYRTISCL [YPL038W-A C-terminal 12 aa]”, for which the protein stability index stood at 0.6408 ± 0.0042 under setting [1] and 0.3261 ± 0.0021 (genetic background: wild type).

Consider NFGVSSSFSFKP [PEX3 C-terminal 12 aa], for which the protein stability index was 0.7032 ± 0.003 under setting [1] and 0.7154 ± 0.0041 (genetic background: wild type).

For the sequence NFVMTVFWKIPV [PER33 C-terminal 12 aa], the protein stability index runs as follows: under setting [1], 0.5008 ± 0.0016; (genetic background: wild type) 0.558 ± 0.075.

As to NGANIFITSALT [YGL176C C-terminal 12 aa], the protein stability index by setting is: under setting [1], 0.691 ± 0.004; (genetic background: wild type) 0.684 ± 0.016.

Regarding NGLKYHRGHSTH [SFP1 C-terminal 12 aa], the protein stability index reads like this: under setting [1], 0.703 ± 0.029; (genetic background: wild type) 0.6745 ± 0.0032.

Take NIFYQLLLTVNY [YBR013C C-terminal 12 aa]: the protein stability index is, setting by setting: under setting [1], 0.229 ± 0.0065; (genetic background: wild type) 0.272 ± 0.02.

Regarding NIGSPLGAPKKK [MBF1 C-terminal 12 aa], the protein stability index came out at 0.696 ± 0.031 under setting [1] and 0.7008 ± 0.0064 (genetic background: wild type).

Take NIHQTDYIYARL [BUD16 C-terminal 12 aa]: the protein stability index by setting is: under setting [1], 0.798 ± 0.031; (genetic background: wild type) 0.708 ± 0.12.

Sequence NILKVEKRAVLE [PMT1 C-terminal 12 aa] registered a protein stability index under setting [1] of 0.684 ± 0.013 and a protein stability index (genetic background: wild type) of 0.659 ± 0.02.

Consider NKEYWMKHKKPQ [PDE2 C-terminal 12 aa], for which the protein stability index is, setting by setting: under setting [1], 0.688 ± 0.0074; (genetic background: wild type) 0.762 ± 0.013.

For NKRDKRPANFTR [TSC11 C-terminal 12 aa], the protein stability index by setting is: under setting [1], 0.7063 ± 0.0042; (genetic background: wild type) 0.692 ± 0.018.

Regarding NKVEENLEGLYL [RPT2 C-terminal 12 aa], the protein stability index is 0.6934 ± 0.0063 under setting [1] and 0.671 ± 0.015 (genetic background: wild type).

Take NLSEAIHDNNGS [NNK1 C-terminal 12 aa]: the protein stability index runs as follows: under setting [1], 0.717 ± 0.019; (genetic background: wild type) 0.7091 ± 0.00097.

Turning to NNVPPIHPSLLH [NGR1 C-terminal 12 aa], the protein stability index runs as follows: under setting [1], 0.7115 ± 0.0066; (genetic background: wild type) 0.695 ± 0.017.

For the sequence NPSILGDFTRED [RTR1 C-terminal 12 aa], the protein stability index by setting is: under setting [1], 0.663 ± 0.015; (genetic background: wild type) 0.715 ± 0.02.

“NRHSYCFSNLAP [YOL085W-A C-terminal 12 aa]”: the protein stability index turned out to be 0.739 ± 0.0025 under setting [1] and 0.691 ± 0.023 (genetic background: wild type).

Consider NRIVSLKDATSK [GLN4 C-terminal 12 aa], for which the protein stability index reads like this: under setting [1], 0.689 ± 0.021; (genetic background: wild type) 0.685 ± 0.025.

For NSFELNDFFITS [HAC1 C-terminal 12 aa], the protein stability index was 0.7145 ± 0.0011 under setting [1] and 0.74 ± 0.031 (genetic background: wild type).

Regarding NSLIFDAFNQIR [CDH1 C-terminal 12 aa], the protein stability index is, setting by setting: under setting [1], 0.732 ± 0.029; (genetic background: wild type) 0.736 ± 0.054.

Turning to NTSRIAKFFNRR [SEC15 C-terminal 12 aa], the protein stability index runs as follows: under setting [1], 0.702 ± 0.031; (genetic background: wild type) 0.70527 ± 7.1e-05.

Regarding NYAPHLSDATTS [MAC1 C-terminal 12 aa], the protein stability index is 0.694 ± 0.013 under setting [1] and 0.7064 ± 0.0029 (genetic background: wild type).

Sequence PAAKGKNLSFKR [RRP6 C-terminal 12 aa] had a protein stability index under setting [1] of 0.7188 ± 0.0035 and a protein stability index (genetic background: wild type) of 0.709 ± 0.015.

As for PADIDKYIIQRK [FMP46 C-terminal 12 aa], the protein stability index by setting is: under setting [1], 0.7015 ± 0.0048; (genetic background: wild type) 0.672 ± 0.029.

In the case of PEDCKDDKYFVN [LCB2 C-terminal 12 aa], the protein stability index reads like this: under setting [1], 0.6832 ± 0.0068; (genetic background: wild type) 0.685 ± 0.04.

On to “PFKERAVFLLVL [YDR524W-C C-terminal 12 aa]”, for which the protein stability index was 0.523 ± 0.016 under setting [1] and 0.361 ± 0.0078 (genetic background: wild type).

Consider PGVDVEVVVASN [RPS20 C-terminal 12 aa], for which the protein stability index by setting is: under setting [1], 0.669 ± 0.0061; (genetic background: wild type) 0.702 ± 0.038.

As for PIAAIKEILDQV [DSF1 C-terminal 12 aa], the protein stability index was determined as 0.666 ± 0.0092 under setting [1] and 0.639 ± 0.03 (genetic background: wild type).

Consider PIIKEILQEYES [DNA2 C-terminal 12 aa], for which the protein stability index was 0.6914 ± 0.0039 under setting [1] and 0.729 ± 0.013 (genetic background: wild type).

Take PIKLKSDEEMII [YFL040W C-terminal 12 aa]: the protein stability index reads like this: under setting [1], 0.707 ± 0.025; (genetic background: wild type) 0.6724 ± 0.0042.

For PILCTSEDFMGW [RGP1 C-terminal 12 aa], the protein stability index amounted to 0.709 ± 0.0088 under setting [1] and 0.732 ± 0.049 (genetic background: wild type).

The sequence PKWTDCEGDLTT [DET1 C-terminal 12 aa] returned a protein stability index under setting [1] of 0.712 ± 0.011 and a protein stability index (genetic background: wild type) of 0.7387 ± 0.0071.

With PLKDLDPNAFRG [YOX1 C-terminal 12 aa], the protein stability index is, setting by setting: under setting [1], 0.6861 ± 0.006; (genetic background: wild type) 0.692 ± 0.021.

Take “PLNDQVCPNSPL [YLR154W-F C-terminal 12 aa]”: the protein stability index runs as follows: under setting [1], 0.7273 ± 0.0053; (genetic background: wild type) 0.694 ± 0.033.

As to PLYSMVAGENSL [SPO23 C-terminal 12 aa], the protein stability index reads like this: under setting [1], 0.678 ± 0.021; (genetic background: wild type) 0.688 ± 0.023.

For the sequence PMIENLRFPNAR [YEH2 C-terminal 12 aa], the protein stability index stood at 0.688 ± 0.023 under setting [1] and 0.7039 ± 0.0046 (genetic background: wild type).

Take PMIKRQCEIIQF [TIP41 C-terminal 12 aa]: the protein stability index is, setting by setting: under setting [1], 0.645 ± 0.029; (genetic background: wild type) 0.676 ± 0.0097.

Take PPAGIPPPPPLP [PAN1 C-terminal 12 aa]: the protein stability index was found to be 0.719 ± 0.0093 under setting [1] and 0.711 ± 0.025 (genetic background: wild type).

PPSDPSSIKIRN [KIN28 C-terminal 12 aa]: the protein stability index by setting is: under setting [1], 0.71109 ± 0.00022; (genetic background: wild type) 0.729 ± 0.0076.
